These results are taken from patent EP0969015A2, “Peptide diagnostic markers for human disorders” (Ortho-Clinical Diagnostics, Inc., priority 1998, dated 2000).

Series [1] can be described thus: Stability of peptides in urine samples. The note with it: compared with the gluten/casein related peptides; not studied in a systematic manner.
The conditions of series [2]: relative to morphine; cited from earlier work.

Turning to “NH4-Tyr AlaPheGluValValGly-COOH (H-YAFEVVG-OH) [deltorphin II]”, the stability in urine entry in series [1] was “more stable in urine than the gluten/casein related peptides”.
Turning to “NH4-TyrAlaPheGlyTyrProSer-COOH [dermorphin]”, the stability in urine entry in series [1] is reported as “more stable in urine than the gluten/casein related peptides”. In series [2], the opiate activity was 1000 times.
